These results are taken from article PMC10599318, “RNA-sequencing analysis reveals novel genes involved in the different peel color formation in eggplant”.

Sequences and labels used below:
T1: SmMYB113 (Solanum melongena, UniProt A0A0A0QP33 1-256)
T1 sequence: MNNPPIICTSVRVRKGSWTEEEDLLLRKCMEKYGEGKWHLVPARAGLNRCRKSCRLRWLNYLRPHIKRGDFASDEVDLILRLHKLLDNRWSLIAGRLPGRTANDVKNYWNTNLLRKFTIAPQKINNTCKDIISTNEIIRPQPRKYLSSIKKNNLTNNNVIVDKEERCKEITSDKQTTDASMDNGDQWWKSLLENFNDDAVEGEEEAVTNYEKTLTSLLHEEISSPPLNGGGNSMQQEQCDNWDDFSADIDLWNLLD

B1: SmF3'5'M probe (dsDNA)
DNA 1: TTTTTTTTTTGCTTAGACAACTGGCAAGGATTTTACTAA
DNA 2: TTAGTAAAATCCTTGCCAGTTGTCTAAGCAAAAAAAAAA
B2: SmCytb5 probe (dsDNA)
DNA 1: TCCAAGTTTTTTTCTTTGGTTGATAATTTTATCTAACG
DNA 2: CGTTAGATAAAATTATCAACCAAAGAAAAAAACTTGGA
B3: SmGST probe (dsDNA)
DNA 1: CAGACTTTCCACTCAACCACTGGTTGCTGCTCATCTTCA
DNA 2: TGAAGATGAGCAGCAACCAGTGGTTGAGTGGAAAGTCTG
B4: SmMATE probe (dsDNA)
DNA 1: AACAATTGCTATAACTACAGTTAGGGAATGCAATTACCG
DNA 2: CGGTAATTGCATTCCCTAACTGTAGTTATAGCAATTGTT
B5: SmASAT3 probe (dsDNA)
DNA 1: TTGGTTTTTATGGGCACAGTTGCTACTATGGGTGAATA
DNA 2: TATTCACCCATAGTAGCAACTGTGCCCATAAAAACCAA

The data set addresses T1, SmMYB113. Kind of data set: EMSA; EMSA per manufacturer's instructions (Thermo Pierce); buffer, salt, pH and temperature not stated; unlabeled competitor 10x, 30x, 100x. As to conditions: protein: recombinant; tags: His (pET32a fusion); label: biotin; blunt.
Regarding B1, the binding result is reported as “binds”. Then B2, with “binds”; and B3, with “binds”; and B4, with “binds”.

Regarding B5, the binding result is given as “binds”.
